Variants at the floor of the assay were thinned out.
B1: TPR 5TU (parent)
chain: GGAUCUUCUCGAUCUAACAAAAAAGACAAAUCUGCCACAAAGCUUGAGAGCAUCUUCGGAUGCAGAGGCGGCAGCCUUCGGUGGCGCGAUAGCGCCAACGUUCUCAACUAUGACACGCAAAACGCGUGCUCCGUUGAAUGGAGUUUAUCAUG

Variants of: B1
Assay: polymerase ribozyme fitness, log enrichment relative to wild type (log ratio); higher = more active; in vitro selection for triplet polymerase activity
Method in brief: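 Mutant libraries for each subunit of a heterodimeric triplet polymerase ribozyme were made by PCR and then transcribed. Each library underwent one round of in vitro selection in triplicate: annealing with a biotinylated primer, the partner subunit and triplets, frozen incubation at −7 °C, gel excision of extended constructs, streptavidin-bead capture and RT-PCR. Input and output libraries were Illumina-sequenced, and only genotypes with ≥10 input reads and ≥1 read per output were kept. Fitness is the logarithm, base 2, of genotype enrichment over wild-type enrichment, computed from inverse-variance-weighted replicate averages.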

Row | Variant | polymerase ribozyme fitness (log ratio)
1 | A21U G80C C85A U127A | ≤ -4.2
2 | A21G A60G C63A C93G | -3.23
3 | A21G A37U G59A A60C | -3.22
4 | A22C A26U U56A G59C C87G U111C | ≤ -4.2
5 | A21U C32G U55A G83U | ≤ -4.2
6 | A21C C96A G143A U146G | -3.61
7 | A21C G58C U61G U146G | -3.25
8 | A21U G141C | 0.187
9 | A21U G141U | 1.9
10 | A21U G34U C51U G86A A89U U145G | ≤ -4.2
11 | A22C A49C G84C G94U | ≤ -4.2
12 | A21U A29U C85U G141C | ≤ -4.2
13 | A21C G84A C95A U104C | -0.91
14 | A21U C96G | -0.697
15 | A21U C96A | -0.443
16 | A21C C87G | -3.89
17 | A21C G42A C54A C96G U102G | ≤ -4.2
18 | A21G A52U C85U G94U A98U C116U | -1.64
19 | A21C U56G A89C C96A C116G A119C | -2.02
20 | A21U A47U C93U | -0.679
21 | A21U A41G A60U C85U C103G C123A | -3.69
22 | A21G C36G A47C A120C G133A | ≤ -4.2
23 | A21U U31C A73G G94U A113U | -3.49
24 | A21G C27A | -3.89

Row | Variant | polymerase ribozyme fitness (log ratio)
25 | A21G C54U G140A U145G | ≤ -4.2
26 | A21U U55A C85U U148A | -4.07
27 | A21G U55A C96U G117A | 0.86
28 | A21C G25U C96A A97G | -3.82
29 | A21G C114U | -1.69
30 | A21G A22G A37C G62C G94C C103A A106C U130A | ≤ -4.2
31 | A21C C57A C85G U130G | -4
32 | A21G A41G C93A C132A | -3.75
33 | A21C A66G | -3.91
34 | A21G G81U G86U C123A | -1.08
35 | A21G U33G A52C A64C C75G C93G U151G | ≤ -4.2
36 | A21U C93G | -2.5
37 | A21C G84A C118A | -0.563
38 | A21C G50C A60C A64U A66G G83A | ≤ -4.2
39 | A21C G34C A39U U55A C95G U104A A119G U144G U146A | ≤ -4.2
40 | A21U U78G | ≤ -4.2
41 | A21U G48A U55A C75U G83C A89G A98U C105U G117A U144C | ≤ -4.2
42 | A21U U33A A40U G58A C85G A98C A106U G126C | ≤ -4.2
43 | A21U U56A C96U | -0.871
44 | A21C G25A C63G | -3.29
45 | A21G A24G A47G G94C U102G C118U A121U | ≤ -4.2
46 | A21U C69U C87U C96A | -1.14
47 | A21U A24C U33C G94A A107C | ≤ -4.2
48 | A21U A40U C85U G141A | 0.05

Row | Variant | polymerase ribozyme fitness (log ratio)
49 | A21U G71C C79G A107U A142C | ≤ -4.2
50 | A21U C93U U144C | -0.648
51 | A21G G50C G71C C79A C95G A121U U127G G136U U139C A142C U145G | ≤ -4.2
52 | A21U A52G C87U C114U U144G | -3.22
53 | A21U A30C C51U G71U C85U | ≤ -4.2
54 | A22C A24G A52G G68U | ≤ -4.2
55 | A21G A39U C75U U82A C87A A98G C118U C125U | ≤ -4.2
56 | A21C G50A C57A C93A U135G | ≤ -4.2
57 | A21G U139A | -3.9
58 | A21C C32G G48A A122G G126U | ≤ -4.2
59 | A21C G68C C69A C93G U144G | ≤ -4.2
60 | A21C C85U A138U | ≤ -4.2
61 | A21U U104C | 0.212
62 | A21G G48A C54U G92A | ≤ -4.2
63 | A21G G84U C118U | -1.39
64 | A21G U151C | -3.8
65 | A21C G50A U102A | -1.21
66 | A21U U56A G81U C85G A107U G141U U144G | ≤ -4.2
67 | A21G U77A A91G | ≤ -4.2
68 | A21G U77G G88C U135G G143U A147C | ≤ -4.2
69 | A21U C87U | -0.254
70 | A21U C87G | ≤ -4.2
71 | A21C G50A C96U C125G | -1.98
72 | A22C A39C U55A U102G C129U | ≤ -4.2

Row | Variant | polymerase ribozyme fitness (log ratio)
73 | A21G A47C C51U C87U U90G | ≤ -4.2
74 | A21U A24C C79U G80C C85U C93U | ≤ -4.2
75 | A21G U53A A60U C96U C99G A110G | ≤ -4.2
76 | A21G C27G U33C G58C C96U A97U A106G G141U | ≤ -4.2
77 | A22C A41U U53C C75U | -2.58
78 | A21C C43U C79G G83U C87G A91G A119U G141A | ≤ -4.2
79 | A21G G50C C93U C118U A138U U145A | ≤ -4.2
80 | A21G C96U | 0.682
81 | A21G C96G | 0.474
82 | A21U A24U U44A U53G U78G A97U A137C G141C | ≤ -4.2
83 | A21U A29U U61A | ≤ -4.2
84 | A21G U55G G143C | -1.59
85 | A21U A24C C27G A28U G88U U102C A107C C114U | ≤ -4.2
86 | A21C C35A G84A G117A U127G | ≤ -4.2
87 | A21C U53A C85A | -2.67
88 | A21U C35U C43U U53A A60U G83C A98G A113G | ≤ -4.2
89 | A21U A26U A28U G67A G88A A122U | ≤ -4.2
90 | A21U A119U G124U | -0.526
91 | A21G U31A C95A | 0.669
92 | A21G G94A | -1.01
93 | A21U A22G G88A A97G A106C C125U | ≤ -4.2
94 | A22C A66C C103G G126C | ≤ -4.2
95 | A21G U33G A52C U61G A64G U78G C95A A106G A142G | ≤ -4.2
96 | A21U G25C A29U U33A A37U A66C G70C G88U G124U | ≤ -4.2

Row | Variant | polymerase ribozyme fitness (log ratio)
97 | A21U C38A U102A A120U A147C | -2.82
98 | A21G G25U G50U C54U A73G C93A C108G C129G U135G | ≤ -4.2
99 | A21G G68A | -3.89
100 | A21G A22U A24G A39U C87A C96A U148C | ≤ -4.2
101 | A21U A49G U55A G84A U104C A137U G140C A150C | ≤ -4.2
102 | A21U U53A C57U G83A C95U | -4.06
103 | A21G U56C C93U | -0.835
104 | A21U G71C C93A | ≤ -4.2
105 | A21C U33A G50A G62A U90C C95A | ≤ -4.2
106 | A21U C36A | -3.4
107 | A21U G34A G141A C149G | ≤ -4.2
108 | A21G A41U C85A C116U | -1.58
109 | A21U C36G U44C C54G G74U A89G A120C U134G | ≤ -4.2
110 | A21U C69A G88U A97C | ≤ -4.2
111 | A21U C96A A110G C116U U145G | ≤ -4.2
112 | A21G C93U | -0.895
113 | A21C C36G A41C C72U A73U U78G C96U C118U G128A A142U | ≤ -4.2
114 | A22C A24G A26U A52G G80A C85G G94U C123U | ≤ -4.2
115 | A21U A23G | -2.94
116 | A21C C27A A40U G46A C57U C87G G126A | ≤ -4.2
117 | A21U U33G A49C G50C C54A U82G G92U | ≤ -4.2
118 | A21U G50U | 0.281
119 | A21U G50C | -3.57
120 | A21U A26C A39G A40C G50A G68C C72G U111C | ≤ -4.2

Row | Variant | polymerase ribozyme fitness (log ratio)
121 | A21G G81A C95U A107G A119C G141U | ≤ -4.2
122 | A21G G50C A52C C79U C118U | ≤ -4.2
123 | A21U G34A C69A C132G | ≤ -4.2
124 | A21U U33G A122U U144G | -3.94
125 | A21C U55G G83U | -0.166
126 | A21C G25A G92A G133U A150G | ≤ -4.2
127 | A21C C35U U44A U53A U101G | ≤ -4.2
128 | A21U C79U C93G | ≤ -4.2
129 | A21U C36G C51U U55C G92U U148A | ≤ -4.2
130 | A21C G59C C85U G100C U130A G136A U144G | ≤ -4.2
131 | A21U C36A G80A G88A G100U G124C G133A G143C U148A | ≤ -4.2
132 | A21U A26U C57U G84U | -3.6
133 | A21C G25C U53A | -3.09
134 | A21U C38U C95U A106U U144C | -2.96
135 | A21U A22U G42A G70C C93U G140C G152U | ≤ -4.2
136 | A21C C87U A147U | 0.884
137 | A21U A24U A64C U101G A110G A138C U145A | ≤ -4.2
138 | A21U A26C G141A | -3.34
139 | A21U G88A | -3.62
140 | A21C C51U A66G C85G | ≤ -4.2
141 | A21C C35A A39C G100C G136U | ≤ -4.2
142 | A21G G46U | 0.452
143 | A21U G128A | -3.26
144 | A21G A24C U31C C69G U148C | ≤ -4.2

Row | Variant | polymerase ribozyme fitness (log ratio)
145 | A21U A22U U53G | -0.816
146 | A21C C57A G81U C85A U139G | -0.214
147 | A22C A23G A49C A66G A113U | ≤ -4.2
148 | A21C G25C C76G A137C U145G | ≤ -4.2
149 | A21U C38A | 0.268
150 | A21C G25A U127G | ≤ -4.2
151 | A21U A41G C95A C96A | -0.65
152 | A21C G141C | 1.03
153 | A21U A29U U33G C35U G81U G84A | -4.1
154 | A21U C96U A97U U127C U139G | -2.62
155 | A21G C38U | 0.63
156 | A21U C32A C51U A73G U134G | ≤ -4.2
157 | A21G A28G U61C | ≤ -4.2
158 | A21C G62C | -0.587
159 | A21C G83C C87A G92U C116G | -1.27
160 | A21G U44A G68U G83U A106G A115U C118A A119C C123U U144G | ≤ -4.2
161 | A22C A29U U33C A47C U53G C95U C105A C118U | ≤ -4.2
162 | A21U U77G U78C G84A | ≤ -4.2
163 | A21G A49C G81A G141A | ≤ -4.2
164 | A21G A40U U56A C132A | -3.09
165 | A21U U45G U55A A91U C125U C131G | ≤ -4.2
166 | A21G A98U C129A U144A | -3.61
167 | A21G G81U C95A C96A A98U U145A | -1.34
